What was measured:
[1] = biological target: human heparin-binding epidermal growth factor, recombinant heparin-binding and EGF domains (human, UniProt Q99075 63-148); experiment: SEC; Superdex 75 10/300 GL, 25 mM Tris.HCl pH 8.0; 150 mM NaCl, flow rate 0.8 mL/min; oligomeric state read from the elution volume; conditions: both partners purified
[2] = biological target: human amphiregulin, recombinant heparin-binding and EGF domains (human, UniProt P15514 101-198); experiment: as above; conditions: both partners purified

Row | stoichiometry N [1] | stoichiometry N [2] | Binder
1 | 2 | – | human heparin-binding epidermal growth factor, recombinant heparin-binding and EGF domains (ligand, three disulfides (C1-C3, C2-C4, C5-C6); SEC suggests a dimer; N-terminal pET32a linker remnant omitted / three disulfides (C1-C3, C2-C4, C5-C6); SEC suggests a dimer; N-terminal pET32a linker remnant) DLQEADLDLLRVTLSSKPQALATPNKEEHGKRKKKGKGLGKKRDPCLRKYKDFCIHGECKYVKELRAPSCICHPGYHGERCHGLSL
2 | – | 2 | human amphiregulin, recombinant heparin-binding and EGF domains (ligand, three disulfides (C1-C3, C2-C4, C5-C6); SEC suggests a dimer; N-terminal pET32a linker remnant omitted / three disulfides (C1-C3, C2-C4, C5-C6); SEC suggests a dimer; N-terminal pET32a linker remnant) SVRVEQVVKPPQNKTESENTSDKPKRKKKGGKNGKNRRNRKKKNPCNAEFQNFCIHGECKYIEHLEAVTCKCQQEYFGERCGEKSMKTHSMIDSSLSK
